Paper PMC8192741, “The Komagataeibacter europaeus GqqA is the prototype of a novel bifunctional N-Acyl-homoserine lactone acylase with prephenate dehydratase activity” (Scientific Reports, 2021)

T1: SeGqqA (Komagataeibacter europaeus, UniProt A0A0M0ELU2, DEL86-170)
T1 construct: gene gqqA; selenomethionine-substituted GqqA; residues 86-170 lost by proteolysis during crystallization (not engineered; termini V85 and His171); made as full length with C-terminal TEV site and His6 tag in E. coli BL21(DE3)
T1 sequence (A0A0M0ELU2 with tags, fused parts or gaps DEL86-170): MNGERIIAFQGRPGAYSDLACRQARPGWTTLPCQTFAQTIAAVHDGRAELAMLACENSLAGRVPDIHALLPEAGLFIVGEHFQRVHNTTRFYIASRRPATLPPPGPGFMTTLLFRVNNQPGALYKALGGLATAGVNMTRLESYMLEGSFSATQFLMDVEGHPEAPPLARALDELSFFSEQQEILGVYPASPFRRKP

B1: GqqA (enzyme, Komagataeibacter europaeus CECT 8546)
chain: MNGERIIAFQGRPGAYSDLACRQARPGWTTLPCQTFAQTIAAVHDGRAELAMLACENSLAGRVPDIHALLPEAGLFIVGEHFQRVEHCLLGIPGSTLADARRIHTHPVAMAQVRGIITELGLDPVVEFDTAGAAEMVREWGRKEDVAVASALAAELNGLEILRRNVEDATHNTTRFYIASRRPATLPPPGPGFMTTLLFRVNNQPGALYKALGGLATAGVNMTRLESYMLEGSFSATQFLMDVEGHPEAPPLARALDELSFFSEQQEILGVYPASPFRRKP
notes: GqqA, quorum quenching N-acyl-homoserine lactone acylase / prephenate dehydratase of Komagataeibacter europaeus CECT 8546; 281 amino acid residues, about 30.5 kDa; PDT domain 1-180, ACT domain 194-281; the gene was integrated in pET21a; no removal of the tag by TEV is described; also called native GqqA; GqqA wt; source: E. coli BL21 (DE3), purified (Ni-NTA, size-exclusion chromatography)

Columns and labels:
GqqA = biological target: T2, GqqA (Komagataeibacter europaeus, UniProt A0A0M0ELU2); experiment: X-ray crystal structure, […] Å; assay type: binding; conditions: ACT regulatory domain at dimer interface, one per monomer; co-purified, not added
T2 construct: E. coli BL21(DE3); homodimer of 61 kDa; primers encode N-terminus MNGERIIA and C-terminus LRRKP; PDT domain 1-180, ACT domain 194-281

SeGqqA = biological target: T1, SeGqqA; experiment: X-ray crystal structure (SAD), […] Å; assay type: binding; conditions: ACT regulatory domain; not added
purified protein [1] = substrate: CCCC(=O)CC(=O)N[C@H]1CCOC1=O; experiment: purified protein; assay type: biochemical, Komagataeibacter europaeus; conditions: 5 mM EPPS pH 8.0, 0.5 mM Phenol Red, 30 °C, substrate 0-65 mM
purified protein [2] = substrate: CCCCCC(=O)CC(=O)N[C@H]1CCOC1=O; experiment: purified protein; assay type: biochemical, Komagataeibacter europaeus; conditions: 5 mM EPPS pH 8.0, 0.5 mM Phenol Red, 30 °C, substrate 0-65 mM
purified protein [3] = substrate: CCCCCCCC(=O)CC(=O)N[C@H]1CCOC1=O; experiment: purified protein; assay type: biochemical, Komagataeibacter europaeus; conditions: 5 mM EPPS pH 8.0, 0.5 mM Phenol Red, 30 °C, substrate 0-65 mM
purified protein [4] = substrate: CCCCCCCCCC(=O)CC(=O)N[C@H]1CCOC1=O; experiment: purified protein; assay type: biochemical, Komagataeibacter europaeus; conditions: 5 mM EPPS pH 8.0, 0.5 mM Phenol Red, 30 °C, substrate 0-65 mM
[5] = biological target: the molecule itself; experiment: dynamic light scattering; GqqA 3.6 mg/ml in 0.1 M K2HPO4 pH 5.0, 150 mM NaCl, 20 °C; hydrodynamic radius 3.9 ± 0.1 nm; long-term measurement at room temperature for 4 days

Molecule	X-ray crystal structure, 2.5 Å (GqqA)	X-ray crystal structure (SAD), 1.7 Å (SeGqqA)	Km (purified protein [1]) [mM]	Vmax (purified protein [1]) [µmol/min/mg]	Vmax/Km (purified protein [1]) [µL/min/mg]	Km (purified protein [2]) [mM]	Vmax (purified protein [2]) [µmol/min/mg]	Vmax/Km (purified protein [2]) [µL/min/mg]	Km (purified protein [3]) [mM]	Vmax (purified protein [3]) [µmol/min/mg]	Vmax/Km (purified protein [3]) [µL/min/mg]	Km (purified protein [4]) [mM]	Vmax (purified protein [4]) [µmol/min/mg]	Vmax/Km (purified protein [4]) [µL/min/mg]	stoichiometry N [5]
N[C@@H](Cc1ccccc1)C(=O)O [L-Phe]	within the dimer interface we identified two L-Phe molecules	L-Phe is also bound in the truncated SeGqqA.	–	–	–	–	–	–	–	–	–	–	–	–	–
B1	–	–	6.89 ± 0.15	109	15900	4.87 ± 0.12	117	24100	2.36 ± 0.35	152	64500	16.7 ± 0.5	13.8	820	2
